Patent publication US20240401239A1 (US Dept. of Health and Human Services, published 2024)
Read-outs that look alike come from different tables or passages of the source.

Legend:
[1] = biological target: T1, RBD-His (SinoBiological, 40592-V08H) (SARS-COV-2, UniProt P0DTC2 319-541)
[2] = biological target: T1, RBD-His (SinoBiological, 40592-V08H); remark: listed apart in the source
[3] = biological target: SARS-COV-2 S protein, variant B1.1.7 (Alpha), on MLV pseudotyped particles (SARS-COV-2, UniProt P0DTC2 14-1254); assay: cell-based or functional assay
[4] = biological target: T2, RBD-mFc recombinant protein (Sino Biological, 40592-V05H) (SARS-COV-2, UniProt P0DTC2 319-541); assay: BLI (Octet), 1-2G-Fc as load, RBD-mFc as analyte, global fit (FIG. 11A)
T2 construct: domain: RBD

[5] = biological target: T2, RBD-mFc recombinant protein (Sino …); assay: BLI (Octet), RBD-mFc as load, 1-2G-Fc as analyte, global fit (FIG. 11C)
[6] = biological target: T2, RBD-mFc recombinant protein (Sino …)
[7] = biological target: T3, S1-hFc recombinant protein (Sino Biological, printed 4059I-V02H) (SARS-COV-2, UniProt P0DTC2 16-685)
[8] = biological target: T2, RBD-mFc recombinant protein (Sino …); remark: listed apart in the source
[9] = biological target: T3, S1-hFc recombinant protein (Sino …); remark: listed apart in the source
[10] = biological target: T1, RBD-His (SinoBiological, 40592-V08H); remark: listed apart in the source
[11] = biological target: T1, RBD-His (SinoBiological, 40592-V08H)
[12] = biological target: T1, RBD-His (SinoBiological, 40592-V08H); remark: listed apart in the source

B1: RBD-1-2G-Fc (Fc fusion)
chain: EVQLVESGGGLVQPGGSLRLSCAASGFSSIVYMGWFRQAPGKGRELVAAIDASGSTTNYPDSVEGRFTISRDNAKRMVYLQMNSLRAEDTAVYYCAIAYFTSPEYVVSQGWGQGTQVTVSS
notes: also called bivalent format of RBD-1-2G
Kd [1]: 1.9 nM
koff [2]: 0.00018 s⁻¹
kon [2]: 91000 M⁻¹ s⁻¹
IC50, pseudotyped particle entry assay, B.1.1.7 particles [3]: 17.5 nM
koff [4]: 0.0017 s⁻¹
kon [4]: 83000 M⁻¹ s⁻¹
koff [5]: 0.0005 s⁻¹
kon [5]: 73000 M⁻¹ s⁻¹

B2: single-domain antibody RBD-1-2G (VHH)
VHH: EVQLVESGGGLVQPGGSLRLSCAASGFSSIVYMGWFRQAPGKGRELVAAIDASGSTTNYPDSVEGRFTISRDNAKRMVYLQMNSLRAEDTAVYYCAIAYFTSPEYVVSQGWGQGTQVTVSS
notes: also called RBD-1-2G Nb; RBD-1-2G nanobody
Kd [6]: 9.4 nM
Kd [7]: 6.9 nM
koff [8]: 0.00024 s⁻¹
kon [8]: 25400 M⁻¹ s⁻¹
koff [9]: 0.0002 s⁻¹
kon [9]: 29500 M⁻¹ s⁻¹
koff [10]: 0.0011 s⁻¹
kon [10]: 752000 M⁻¹ s⁻¹
IC50, pseudotyped particle entry assay, B.1.1.7 particles [3]: 746 nM
Kd [11]: 14.3 nM

B3: RBD-1-2G-Tri (bispecific antibody)
chain: EVQLVESGGGLVQPGGSLRLSCAASGFSSIVYMGWFRQAPGKGRELVAAIDASGSTTNYPDSVEGRFTISRDNAKRMVYLQMNSLRAEDTAVYYCAIAYFTSPEYVVSQGWGQGTQVTVSSGGGGSGGGGSGGGGSEVQLVESGGGLVQPGGSLRLSCAASGFSSIVYMGWFRQAPGKGRELVAAIDASGSTTNYPDSVEGRFTISRDNAKRMVYLQMNSLRAEDTAVYYCAIAYFTSPEYVVSQGWGQGTQVTVSSGGGGSGGGGSGGGGSEVQLVESGGGLVQPGGSLRLSCAASGFSSIVYMGWFRQAPGKGRELVAAIDASGSTTNYPDSVEGRFTISRDNAKRMVYLQMNSLRAEDTAVYYCAIAYFTSPEYVVSQGWGQGTQVTVSSHHHHHH
Kd [1]: 0.1 nM
koff [12]: 7e-05 s⁻¹
kon [12]: 600000 M⁻¹ s⁻¹
IC50, pseudotyped particle entry assay, B.1.1.7 particles [3]: 0.3 nM
